{"source": "patent US5064430A", "about": "“Polynonapeptide bioelastomers having an increased elastic modulus” (UAB Research Foundation, priority 1989, dated 1991)", "key": {"fibroblasts": {"tested_on": "fibroblasts", "test": "Checkerboard assay of Zigmond and Hirsch (chemotaxis) with fibroblasts", "assay_type": "cell-based", "from_the_text": "The chemotaxis of the present polynonapeptide towards fibroblasts and endothelial cells can be determined and verified by the well known checkerboard assay of Zigmond and Hirsch. […] Checkerboard analysis of AGVPGFGVG and GFGVGAGVP sequences with fibroblasts using the procedure as described above afforded the following results which are represented graphically in Tables I and II."}, "[1]": {"test": "Temperature profiles of turbidity formation / coacervation (light scattering at 300 nm)", "assay_type": "physicochemical", "conditions": "for midpoint of the temperature profile of turbidity formation / coacervation: 40 mg/ml (high concentration limit); for onset of aggregation (coacervation): high molecular weight polymer in water", "experimental": "FIG. 3 illustrates temperature profiles of turbidity (TP.tau.) data for poly(VPGFGVGAG) at 40 mg/ml and 1 mg/ml concentrations in H2 O. The aggregational process was monitored by measuring light scattering at 300 nm as a function of temperature using a Cary 14 recording spectrophotometer.\nThe temperature dependence for aggregation of the polypentapeptide is followed as the development of turbidity at 300 nm using a Cary 14 spectrophotometer. The sample cell is placed within a chamber vibrating at 300 Hz in order to facilitate equilibrium and to keep the aggregates from settling. The scan rate is 30° C./hour and the temperature was controlled with a Neslab ETP-3 programmer and monitored with an Omega 199A thermocouple monitor placed at the cell. The turbidity as a function of temperature provides a temperature profile for coacervation which is found to be concentration dependent. As the concentration is raised, the profile shifts to lower temperatures until further increases in concentration cause no further lowering of the temperature for aggregation. This defines the high concentration limit. The temperature for the onset of coacervation at the high concentration limit coincides with the temperature for the onset of the transition within the coacervate itself, even when there is no appreciable change in water content of the coacervate. […] When the midpoint is 25° C. for the PPP, the molecular weight is close to 100,000 daltons as calibrated by dialysis. For the Ile^1 -PPP with a midpoint of 9° C., the molecular weight is greater than 50,000 daltons, as the synthetic polypeptide was retained by a 50,000 daltons dialysis membrane. The dialysis was carried out at 4° C. where the Ilel-PPP is in solution.\nPolypeptide coacervation in water is reversible aggregation to form a new phase with a distinct composition. Association occurs on raising the temperature, disassociation on lowering the temperature. The process of coacervation was followed by monitoring the turbidity as a function of temperature using a Cary 14 spectrophotometer set at 300 nm, a Neslab ETP-3 temperature programmer with a 30° C./hour scan rate and an Omega 199A thermocouple monitor. The sample cell was placed in a vibrating chamber (300 Hz) to keep the aggregates from settling and to facilitate equilibrium. The temperature profiles for coacervation are concentration dependent. Dilution from a high concentration, after the high concentration limit is reached (approximately 40 mg/ml for high molecular weight elastomeric polypeptides), results in a shift of the turbidity profile to higher temperature."}, "[2]": {"test": "Solubility in water as a function of temperature", "assay_type": "physicochemical"}, "[3]": {"test": "Stress/strain studies of γ-irradiation cross-linked matrices (elastic modulus)", "assay_type": "physicochemical", "conditions": "25 Mrad cross-linking dose"}, "[4]": {"test": "Thermoelasticity studies (elastomeric force as a function of temperature)", "assay_type": "physicochemical", "conditions": "γ-irradiation cross-linked (20 Mrad), fixed extension (40%), in water", "experimental": "Thermoelasticity studies were carried out on a stress-stain instrument built in this Laboratory. The sample is mounted in two Delrin clamps. The top clamp is attached to a Statham UTC strain-gauge and the assembly is fixed. The bottom clamp is attached to a moving platform driven by a variable speed motor. Both clamps are enclosed in a thermostated water jacket. An inner chamber contains the solvent in which the elastomer is immersed which in this case is doubly distilled water. The sample was fixed in the top clamp and equilibrated in water at 60° C. for about an hour. The strain-gauge signal conditioner was balanced for zero force and the bottom clamp was attached to the sample. The sample was left to set overnight at room temperature. The bottom clamp was then adjusted for zero force and the distance between the clamps was measured. The elastomer was elongated to 40% extension at 5° C. and elastomeric force was then determined as a function of temperature. Equilibrium time to achieve constant force at a given temperature was typically twenty-four hours. Force measurements were made in 2° C. increments through the sharp rise in force and 5° C. increments at higher temperatures.\nThermoelasticity studies were carried out on a stress-strain apparatus. Clamping of the sample in the holder was done in two stages to prevent damage to the material at the clamp edge. The sample was first gripped lightly with the top clamp, raised to 60° C. while submerged in water within the temperature jacket and allowed to equilibrate for about 2 hours. The measured force consisting of the weight of the sample and grips in water were set to zero. The bottom grip was then attached to the sample and both grips tightened to hold the sample firmly. The bottom clamp was driven as in a stress-strain measurement and stopped at 40% elongation. Force data were recorded in 5° C. steps starting at 70° C. and continuing to 40° C. where the force approached zero."}, "[5]": {"conditions": "high molecular weight, cross-linked by γ-irradiation (background); cited from earlier work"}}, "note": "Like-named read-outs stand apart in the source and are kept apart here. Ends that are not written are not given here."}
{"substance": "PDGF", "values": [{"measurement": "Checkerboard analysis with fibroblasts, positive control", "setting": "fibroblasts; PDGF at 30 μg/ml (Table II experiment)", "value": 59}, {"measurement": "Checkerboard analysis with fibroblasts, positive control", "setting": "fibroblasts; PDGF at 60 μg/ml (Table I experiment)", "value": 21}]}
{"substance": "Poly[Ala-Gly-Val-Pro-Gly-Phe-Gly-Val-Gly]-OH [poly(VPGFGVGAG)]", "values": [{"measurement": "midpoint of the temperature profile of turbidity formation", "setting": "[1]; in water, 1 mg/ml", "value": "about 11 °C"}, {"measurement": "midpoint of the temperature profile of turbidity formation / coacervation", "setting": "[1]; in water", "value": "about 8 °C"}, {"measurement": "temperature below which soluble in water", "setting": "[2]", "value": "below 5 °C"}, {"measurement": "elastic modulus", "setting": "[3]", "value": "10^8 dynes/cm^2"}]}
{"substance": "H-(Gly-Val-Gly-Ile-Pro)n -OH (H-GVGIP-OH; also: polymer, (GVGIP) repeated n times) [Ile^1 -PPP]", "values": [{"measurement": "onset of aggregation (coacervation)", "setting": "[1]", "value": "~8", "unit": "°C"}, {"measurement": "midpoint of the temperature profile of turbidity formation / coacervation", "setting": "[1]; in water", "value": 9, "unit": "°C"}, {"measurement": "temperature below which soluble in water", "setting": "[2]", "value": "below 8 °C"}, {"measurement": "temperature of essentially full elastic contraction / maximal elastomeric force", "setting": "[4]", "value": "about 25 °C"}]}
{"substance": "(Val-Pro-Gly-Val-Gly)n (VPGVG; also: polymer of repeating pentamer, (VPGVG)n) [PPP, reference compound]", "values": [{"measurement": "onset of aggregation (coacervation)", "setting": "[1]", "value": 24, "unit": "°C"}, {"measurement": "midpoint of the temperature profile of turbidity formation / coacervation", "setting": "[1]; in water", "value": 25, "unit": "°C"}, {"measurement": "temperature of essentially full elastic contraction / maximal elastomeric force", "setting": "[4]", "value": 40, "unit": "°C"}, {"measurement": "elastic modulus", "setting": "[5]", "value": "~10^6 dynes/cm^2"}]}
{"substance": "H-(Gly-Gly-Val-Pro)n -OH (H-GGVP-OH; also: repeated n times (polymer)) [PTP]", "values": [{"measurement": "onset of aggregation (coacervation)", "setting": "[1]", "value": 48, "unit": "°C"}, {"measurement": "midpoint of the temperature profile of turbidity formation / coacervation", "setting": "[1]; in water", "value": 49, "unit": "°C"}, {"measurement": "temperature below which soluble in water", "setting": "[2]", "value": "below 40 °C"}, {"measurement": "temperature of essentially full elastic contraction / maximal elastomeric force", "setting": "[4]", "value": "~70", "unit": "°C"}]}
